Measurements taken from PMC10512374, “Characterization and Phylogenetic Analysis of a Novel GH43 β-Xylosidase From Neocallimastix californiae” (Frontiers in Fungal Biology, 2021).

B1: Xyl43Nc (Neocallimastix californiae) (protein)
chain: MVTIEKRPLVTDTYTADPSAHVFNGKIYIYPSHDRDIETIDNDNGDQYDMKDYHVYEMDDENTLPRDCGKVLDIKDIPWVSKQLWAPDCVEKDGKYYFFYPARDKEGFFRIGVAIGDKPGGPFKPEPNYIQGTYSIDPCIFPDTDKNFYLTFGGIWGGQLDKYRNNVYDEKNEEPTGETPAVCAKIAKMNPDMKTLAEAPRDIVILDENGKPLTGKDHDRRYFEDPWLYKKGDTYYFTYSTGDTHFLCWSTSKNVYGPYTYGGKILTPVLGWTTHHSILEYHGKWWLFYHDCEISKGVNHKRNVKFRELKYDDKGGIITMDGTLGA
notes: E. coli BL21 pLysS (DE3); HisTrap and Sephacryl S-200

Tests used:
Xyl43Nc = target: T1, Xyl43Nc (Neocallimastix californiae, UniProt A0A1Y2A0L6); experiment: product inhibition of 4-nitrophenyl xyloside hydrolysis, […] nm, curve fit; assay type: biochemical; details: competitive, xylose 0-10 mM, substrate 4-nitrophenol-xylopyranoside 0.25-7.5 mM
T1 construct: E. coli BL21 pLysS (DE3); HisTrap and Sephacryl S-200
T1 sequence (A0A1Y2A0L6 1-326): B1 chain

purified protein = substrate: O=[N+]([O-])c1ccc(O[C@@H]2OC[C@@H](O)[C@H](O)[C@H]2O)cc1; experiment: purified protein; assay type: biochemical, Neocallimastix californiae; details: pH 6, 32 °C, no added metal

| Molecule | Ki (Xyl43Nc) | Km (purified protein) | Vmax (purified protein) | kcat (purified protein) |
| --- | --- | --- | --- | --- |
| OC1OC[C@@H](O)[C@H](O)[C@H]1O (stereo partly shown) [xylose] | 6.11 mM | – | – | – |
| B1 | – | 720 µM | 47 µmol/min/mg | 29.3 s⁻¹ |
